The values below come from paper PMC9536202.

One assay has as its target MakA^W243D. Nature of the assay: SEC. Background: In gel filtration, larger molecules generally elute earlier.
The target of assay [1] is Motility associated killing factor A (MakA), wild type. The assay is described as follows: SEC.

The substance MakA^W243D (natural protein) showed a percent oligomer in the assay with MakA^W243D of 100%.

In assay [1], “Motility associated killing factor A (MakA), wild type (natural protein)” showed a percent monomer of 80% and a percent oligomer of 20%.
